Laboratory results published in publication PMC5651189.

Molecular target: PKA regulatory subunit RIIα (human (endogenous in SK-Br-3)) (UniProt P13861)
Assay: proximity ligation

Sequence of PKA regulatory subunit RIIα (human (endogenous in SK-Br-3)) (P13861 whole entry): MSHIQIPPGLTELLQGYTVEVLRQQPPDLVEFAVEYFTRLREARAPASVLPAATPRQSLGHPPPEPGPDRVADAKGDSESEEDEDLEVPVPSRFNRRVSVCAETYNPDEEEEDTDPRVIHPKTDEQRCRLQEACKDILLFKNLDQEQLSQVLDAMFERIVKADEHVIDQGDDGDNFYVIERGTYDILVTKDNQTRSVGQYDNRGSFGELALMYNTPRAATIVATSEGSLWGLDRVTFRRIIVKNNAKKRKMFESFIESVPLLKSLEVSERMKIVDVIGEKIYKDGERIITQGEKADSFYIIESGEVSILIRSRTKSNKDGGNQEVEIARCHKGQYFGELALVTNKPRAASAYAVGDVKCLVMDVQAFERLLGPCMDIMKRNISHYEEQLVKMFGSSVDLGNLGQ

PKA catalytic subunit (PKAc) (from UniProt P17612 1-351) (enzyme)
decrease of CICF in SK.tDp^T39A against SK.empty cells: 67% | increase of CICF in SK.tDp against SK.empty cells: 36%
